Laboratory results: IntAct's records for PubMed 21944579

B1: Dickkopf-related protein 1 (Homo sapiens), O94907 (parent)
chain: MMALGAAGATRVFVAMVAAALGGHPLLGVSATLNSVLNSNAIKNLPPPLGGAAGHPGSAVSAAPGILYPGGNKYQTIDNYQPYPCAEDEECGTDEYCASPTRGGDAGVQICLACRKRRKRCMRHAMCCPGNYCKNGICVSSDQNHFRGEIEETITESFGNDHSTLDGYSRRTTLSSKMYHTKGQEGSVCLRSSDCASGLCCARHFWSKICKPVLKEGQVCTKHRRKGSHGLEIFQRCYCGEGLSCRIQKDHHQASNSSRLHTCQRH
B2: Low-density lipoprotein receptor-related protein 6 (Homo sapiens), O75581 (parent)
chain: MGAVLRSLLACSFCVLLRAAPLLLYANRRDLRLVDATNGKENATIVVGGLEDAAAVDFVFSHGLIYWSDVSEEAIKRTEFNKTESVQNVVVSGLLSPDGLACDWLGEKLYWTDSETNRIEVSNLDGSLRKVLFWQELDQPRAIALDPSSGFMYWTDWGEVPKIERAGMDGSSRFIIINSEIYWPNGLTLDYEEQKLYWADAKLNFIHKSNLDGTNRQAVVKGSLPHPFALTLFEDILYWTDWSTHSILACNKYTGEGLREIHSDIFSPMDIHAFSQQRQPNATNPCGIDNGGCSHLCLMSPVKPFYQCACPTGVKLLENGKTCKDGATELLLLARRTDLRRISLDTPDFTDIVLQLEDIRHAIAIDYDPVEGYIYWTDDEVRAIRRSFIDGSGSQFVVTAQIAHPDGIAVDWVARNLYWTDTGTDRIEVTRLNGTMRKILISEDLEEPRAIVLDPMVGYMYWTDWGEIPKIERAALDGSDRVVLVNTSLGWPNGLALDYDEGKIYWGDAKTDKIEVMNTDGTGRRVLVEDKIPHIFGFTLLGDYVYWTDWQRRSIERVHKRSAEREVIIDQLPDLMGLKATNVHRVIGSNPCAEENGGCSHLCLYRPQGLRCACPIGFELISDMKTCIVPEAFLLFSRRADIRRISLETNNNNVAIPLTGVKEASALDFDVTDNRIYWTDISLKTISRAFMNGSALEHVVEFGLDYPEGMAVDWLGKNLYWADTGTNRIEVSKLDGQHRQVLVWKDLDSPRALALDPAEGFMYWTEWGGKPKIDRAAMDGSERTTLVPNVGRANGLTIDYAKRRLYWTDLDTNLIESSNMLGLNREVIADDLPHPFGLTQYQDYIYWTDWSRRSIERANKTSGQNRTIIQGHLDYVMDILVFHSSRQSGWNECASSNGHCSHLCLAVPVGGFVCGCPAHYSLNADNRTCSAPTTFLLFSQKSAINRMVIDEQQSPDIILPIHSLRNVRAIDYDPLDKQLYWIDSRQNMIRKAQEDGSQGFTVVVSSVPSQNLEIQPYDLSIDIYSRYIYWTCEATNVINVTRLDGRSVGVVLKGEQDRPRAVVVNPEKGYMYFTNLQERSPKIERAALDGTEREVLFFSGLSKPIALALDSRLGKLFWADSDLRRIESSDLSGANRIVLEDSNILQPVGLTVFENWLYWIDKQQQMIEKIDMTGREGRTKVQARIAQLSDIHAVKELNLQEYRQHPCAQDNGGCSHICLVKGDGTTRCSCPMHLVLLQDELSCGEPPTCSPQQFTCFTGEIDCIPVAWRCDGFTECEDHSDELNCPVCSESQFQCASGQCIDGALRCNGDANCQDKSDEKNCEVLCLIDQFRCANGQCIGKHKKCDHNVDCSDKSDELDCYPTEEPAPQATNTVGSVIGVIVTIFVSGTVYFICQRMLCPRMKGDGETMTNDYVVHGPASVPLGYVPHPSSLSGSLPGMSRGKSMISSLSIMGGSSGPPYDRAHVTGASSSSSSSTKGTYFPAILNPPPSPATERSHYTMEFGYSSNSPSTHRSYSYRPYSYRHFAPPTTPCSTDVCDSDYAPSRRMTSVATAKGYTSDLNYDSEPVPPPPTPRSQYLSAEENYESCPPSPYTERSYSHHLYPPPPSPCTDSS
partner: B1 chain
B3: Low-density lipoprotein receptor-related protein 6 (Homo sapiens), O75581 (parent)
chain: B2 chain
B4: Sclerostin (Homo sapiens), Q9BQB4 (parent)
chain: MQLPLALCLVCLLVHTAFRVVEGQGWQAFKNDATEIIPELGEYPEPPPELENNKTMNRAENGGRPPHHPFETKDVSEYSCRELHFTRYVTDGPCRSAKPVTELVCSGQCGPARLLPNAIGRGKWWRPSGPDFRCIPDRYRAQRVQLLCPGGEAPRARKVRLVASCKCKRLTRFHNQSELKDFGTEAARPQKGRKPRPRARSAKANQAELENAY

Variants of: B1
Details: with lrp6_human LRP6, O75581

Variant | effect of a mutation on the interaction
MMALGAAGATRVFVAMVAAALGGHPLLGVSATLNSVLNSNAIKNLPPPLGGAAGHPGSAVSAAPGILYPGGNKYQTIDNYQPYPCAEDEECGTDEYCASPTRGGDAGVQICLACRKRRKRCMRHAMCCPGNYCKNGICVSSDQNHFRGEIEETITESFGNDHSTLDGYSRRTTLSSKMYHTKGQEGSVCLRSSDCASGLCCAREFWSKICKPVLKEGQVCTKHRRKGSHGLEIFQRCYCGEGLSCRIQKDHHQASNSSRLHTCQRH [H204E] | disrupting interaction
MMALGAAGATRVFVAMVAAALGGHPLLGVSATLNSVLNSNAIKNLPPPLGGAAGHPGSAVSAAPGILYPGGNKYQTIDNYQPYPCAEDEECGTDEYCASPTRGGDAGVQICLACRKRRKRCMRHAMCCPGNYCKNGICVSSDQNHFRGEIEETITESFGNDHSTLDGYSRRTTLSSKMYHTKGQEGSVCLRSSDCASGLCCARHFWSKICEPVLKEGQVCTKHRRKGSHGLEIFQRCYCGEGLSCRIQKDHHQASNSSRLHTCQRH [K211E] | disrupting interaction

Variants of: B1
Details: with lrp6_human LRP6, O75581
Remark: another data set of the same source

Variant | effect of a mutation on the interaction
MMALGAAGATRVFVAMVAAALGGHPLLGVSATLNSVLNSAAIKNLPPPLGGAAGHPGSAVSAAPGILYPGGNKYQTIDNYQPYPCAEDEECGTDEYCASPTRGGDAGVQICLACRKRRKRCMRHAMCCPGNYCKNGICVSSDQNHFRGEIEETITESFGNDHSTLDGYSRRTTLSSKMYHTKGQEGSVCLRSSDCASGLCCARHFWSKICKPVLKEGQVCTKHRRKGSHGLEIFQRCYCGEGLSCRIQKDHHQASNSSRLHTCQRH [N40A] | decreasing interaction
MMALGAAGATRVFVAMVAAALGGHPLLGVSATLNSVLNSNAEKNLPPPLGGAAGHPGSAVSAAPGILYPGGNKYQTIDNYQPYPCAEDEECGTDEYCASPTRGGDAGVQICLACRKRRKRCMRHAMCCPGNYCKNGICVSSDQNHFRGEIEETITESFGNDHSTLDGYSRRTTLSSKMYHTKGQEGSVCLRSSDCASGLCCARHFWSKICKPVLKEGQVCTKHRRKGSHGLEIFQRCYCGEGLSCRIQKDHHQASNSSRLHTCQRH [I42E] | disrupting interaction

Variants of: B2
Details: with dkk1_human DKK1, O94907

Variant | effect of a mutation on the interaction
A201V | disrupting interaction
R141M | disrupting interaction
D98Y | disrupting interaction
A229T | disrupting interaction
N185S | disrupting interaction

Variants of: B3
Details: with sost_human SOST

Variant | effect of a mutation on the interaction
D98Y | disrupting interaction
R141M | disrupting interaction
N185S | disrupting interaction
A201V | disrupting interaction
A229T | disrupting interaction

Variants of: B4
Details: with lrp6_human LRP6, O75581

Variant | effect of a mutation on the interaction
N117A | decreasing interaction
I119E | decreasing interaction
